Data on 5 molecules can be found in patent EP4663654A1 (Hangzhou Sciwind Biosciences Co., Ltd., dated 2025).

Starred links: 1 amine or outer side, 2 acyl side, 3 side chain; linkers in the order of their positions; H or OH if unused. Non-standard residues stand in square brackets, D forms with d. *: point of attachment. C20 diacid = O=C(O)CCCCCCCCCCCCCCCCCCC(=O)*; γGlu = O=C(O)[C@H](CCC(=O)[*:2])N[*:1]; Hyp = O=C(O)[C@@H]1C[C@@H](O)CN1; NMeD = CN[C@@H](CC(=O)O)C(=O)O; NMeN = CN[C@@H](CC(N)=O)C(=O)O

First the molecules themselves.
T1: human amylin receptor (AMY3) on CHO-K1/Ga15/AMY3 amylin receptor/CRE-luc cells (human, UniProt P30988 25-474; O60896 24-148)
T1 sequence (looked up) 1: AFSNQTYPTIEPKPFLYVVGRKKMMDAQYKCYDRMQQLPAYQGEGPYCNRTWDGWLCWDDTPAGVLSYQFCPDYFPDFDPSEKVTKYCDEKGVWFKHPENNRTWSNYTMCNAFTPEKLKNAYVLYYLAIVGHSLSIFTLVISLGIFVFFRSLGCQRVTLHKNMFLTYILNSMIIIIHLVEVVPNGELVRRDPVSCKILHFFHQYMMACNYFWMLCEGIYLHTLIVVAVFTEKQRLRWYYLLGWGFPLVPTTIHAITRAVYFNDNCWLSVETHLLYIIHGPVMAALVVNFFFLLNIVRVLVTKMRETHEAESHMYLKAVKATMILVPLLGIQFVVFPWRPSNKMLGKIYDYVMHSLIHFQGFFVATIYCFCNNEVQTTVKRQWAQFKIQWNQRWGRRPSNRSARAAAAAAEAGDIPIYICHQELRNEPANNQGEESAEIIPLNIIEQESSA
T1 sequence (looked up) 2: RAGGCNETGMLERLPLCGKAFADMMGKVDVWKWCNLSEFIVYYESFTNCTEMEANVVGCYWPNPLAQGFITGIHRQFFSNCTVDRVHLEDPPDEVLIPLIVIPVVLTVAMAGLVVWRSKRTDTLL

B1: polypeptide derivative M41 (peptide)
peptide: {C20 diacid-γGlu}-ASQLSTAATQRLADFLRHSSQQLKPILPPTNVGSNT[Hyp]-NH2
SMILES: CC[C@H](C)[C@H](NC(=O)[C@@H]1CCCN1C(=O)[C@H](CCCCN)NC(=O)[C@H](CC(C)C)NC(=O)[C@H](CCC(N)=O)NC(=O)[C@H](CCC(N)=O)NC(=O)[C@H](CO)NC(=O)[C@H](CO)NC(=O)[C@H](Cc1c[nH]cn1)NC(=O)[C@H](CCCNC(=N)N)NC(=O)[C@H](CC(C)C)NC(=O)[C@H](Cc1ccccc1)NC(=O)[C@H](CC(=O)O)NC(=O)[C@H](C)NC(=O)[C@H](CC(C)C)NC(=O)[C@H](CCCNC(=N)N)NC(=O)[C@H](CCC(N)=O)NC(=O)[C@@H](NC(=O)[C@H](C)NC(=O)[C@H](C)NC(=O)[C@@H](NC(=O)[C@H](CO)NC(=O)[C@H](CC(C)C)NC(=O)[C@H](CCC(N)=O)NC(=O)[C@H](CO)NC(=O)[C@H](C)NC(=O)CC[C@H](NC(=O)CCCCCCCCCCCCCCCCCCC(=O)O)C(=O)O)[C@@H](C)O)[C@@H](C)O)C(=O)N[C@@H](CC(C)C)C(=O)N1CCC[C@H]1C(=O)N1CCC[C@H]1C(=O)N[C@H](C(=O)N[C@@H](CC(N)=O)C(=O)N[C@H](C(=O)NCC(=O)N[C@@H](CO)C(=O)N[C@@H](CC(N)=O)C(=O)N[C@H](C(=O)N1C[C@H](O)C[C@H]1C(N)=O)[C@@H](C)O)C(C)C)[C@@H](C)O
B2: polypeptide derivative M43 (peptide)
peptide: {C20 diacid-γGlu}-ASQLSTAATQRLADFLRHSSSSLKPILPPTNVGSNT[Hyp]-NH2
SMILES: CC[C@H](C)[C@H](NC(=O)[C@@H]1CCCN1C(=O)[C@H](CCCCN)NC(=O)[C@H](CC(C)C)NC(=O)[C@H](CO)NC(=O)[C@H](CO)NC(=O)[C@H](CO)NC(=O)[C@H](CO)NC(=O)[C@H](Cc1c[nH]cn1)NC(=O)[C@H](CCCNC(=N)N)NC(=O)[C@H](CC(C)C)NC(=O)[C@H](Cc1ccccc1)NC(=O)[C@H](CC(=O)O)NC(=O)[C@H](C)NC(=O)[C@H](CC(C)C)NC(=O)[C@H](CCCNC(=N)N)NC(=O)[C@H](CCC(N)=O)NC(=O)[C@@H](NC(=O)[C@H](C)NC(=O)[C@H](C)NC(=O)[C@@H](NC(=O)[C@H](CO)NC(=O)[C@H](CC(C)C)NC(=O)[C@H](CCC(N)=O)NC(=O)[C@H](CO)NC(=O)[C@H](C)NC(=O)CC[C@H](NC(=O)CCCCCCCCCCCCCCCCCCC(=O)O)C(=O)O)[C@@H](C)O)[C@@H](C)O)C(=O)N[C@@H](CC(C)C)C(=O)N1CCC[C@H]1C(=O)N1CCC[C@H]1C(=O)N[C@H](C(=O)N[C@@H](CC(N)=O)C(=O)N[C@H](C(=O)NCC(=O)N[C@@H](CO)C(=O)N[C@@H](CC(N)=O)C(=O)N[C@H](C(=O)N1C[C@H](O)C[C@H]1C(N)=O)[C@@H](C)O)C(C)C)[C@@H](C)O
B3: polypeptide derivative M42 (peptide)
peptide: {C20 diacid-γGlu}-ASQLSTAATQRLADFLRHSSEELKPILPPTNVGSNT[Hyp]-NH2
SMILES: CC[C@H](C)[C@H](NC(=O)[C@@H]1CCCN1C(=O)[C@H](CCCCN)NC(=O)[C@H](CC(C)C)NC(=O)[C@H](CCC(=O)O)NC(=O)[C@H](CCC(=O)O)NC(=O)[C@H](CO)NC(=O)[C@H](CO)NC(=O)[C@H](Cc1c[nH]cn1)NC(=O)[C@H](CCCNC(=N)N)NC(=O)[C@H](CC(C)C)NC(=O)[C@H](Cc1ccccc1)NC(=O)[C@H](CC(=O)O)NC(=O)[C@H](C)NC(=O)[C@H](CC(C)C)NC(=O)[C@H](CCCNC(=N)N)NC(=O)[C@H](CCC(N)=O)NC(=O)[C@@H](NC(=O)[C@H](C)NC(=O)[C@H](C)NC(=O)[C@@H](NC(=O)[C@H](CO)NC(=O)[C@H](CC(C)C)NC(=O)[C@H](CCC(N)=O)NC(=O)[C@H](CO)NC(=O)[C@H](C)NC(=O)CC[C@H](NC(=O)CCCCCCCCCCCCCCCCCCC(=O)O)C(=O)O)[C@@H](C)O)[C@@H](C)O)C(=O)N[C@@H](CC(C)C)C(=O)N1CCC[C@H]1C(=O)N1CCC[C@H]1C(=O)N[C@H](C(=O)N[C@@H](CC(N)=O)C(=O)N[C@H](C(=O)NCC(=O)N[C@@H](CO)C(=O)N[C@@H](CC(N)=O)C(=O)N[C@H](C(=O)N1C[C@H](O)C[C@H]1C(N)=O)[C@@H](C)O)C(C)C)[C@@H](C)O
B4: polypeptide derivative M45 (peptide)
peptide: {C20 diacid-γGlu}-ASQLSTAATQRLADFLRHSSN[NMeD]LKPILPPTNVGSNT[Hyp]-NH2
SMILES: CC[C@H](C)[C@H](NC(=O)[C@@H]1CCCN1C(=O)[C@H](CCCCN)NC(=O)[C@H](CC(C)C)NC(=O)[C@H](CC(=O)O)N(C)C(=O)[C@H](CC(N)=O)NC(=O)[C@H](CO)NC(=O)[C@H](CO)NC(=O)[C@H](Cc1c[nH]cn1)NC(=O)[C@H](CCCNC(=N)N)NC(=O)[C@H](CC(C)C)NC(=O)[C@H](Cc1ccccc1)NC(=O)[C@H](CC(=O)O)NC(=O)[C@H](C)NC(=O)[C@H](CC(C)C)NC(=O)[C@H](CCCNC(=N)N)NC(=O)[C@H](CCC(N)=O)NC(=O)[C@@H](NC(=O)[C@H](C)NC(=O)[C@H](C)NC(=O)[C@@H](NC(=O)[C@H](CO)NC(=O)[C@H](CC(C)C)NC(=O)[C@H](CCC(N)=O)NC(=O)[C@H](CO)NC(=O)[C@H](C)NC(=O)CC[C@H](NC(=O)CCCCCCCCCCCCCCCCCCC(=O)O)C(=O)O)[C@@H](C)O)[C@@H](C)O)C(=O)N[C@@H](CC(C)C)C(=O)N1CCC[C@H]1C(=O)N1CCC[C@H]1C(=O)N[C@H](C(=O)N[C@@H](CC(N)=O)C(=O)N[C@H](C(=O)NCC(=O)N[C@@H](CO)C(=O)N[C@@H](CC(N)=O)C(=O)N[C@H](C(=O)N1C[C@H](O)C[C@H]1C(N)=O)[C@@H](C)O)C(C)C)[C@@H](C)O
B5: polypeptide derivative M44 (peptide)
peptide: {C20 diacid-γGlu}-ASQLSTAATQRLADFLRHSSN[NMeN]LKPILPPTNVGSNT[Hyp]-NH2
SMILES: CC[C@H](C)[C@H](NC(=O)[C@@H]1CCCN1C(=O)[C@H](CCCCN)NC(=O)[C@H](CC(C)C)NC(=O)[C@H](CC(N)=O)N(C)C(=O)[C@H](CC(N)=O)NC(=O)[C@H](CO)NC(=O)[C@H](CO)NC(=O)[C@H](Cc1c[nH]cn1)NC(=O)[C@H](CCCNC(=N)N)NC(=O)[C@H](CC(C)C)NC(=O)[C@H](Cc1ccccc1)NC(=O)[C@H](CC(=O)O)NC(=O)[C@H](C)NC(=O)[C@H](CC(C)C)NC(=O)[C@H](CCCNC(=N)N)NC(=O)[C@H](CCC(N)=O)NC(=O)[C@@H](NC(=O)[C@H](C)NC(=O)[C@H](C)NC(=O)[C@@H](NC(=O)[C@H](CO)NC(=O)[C@H](CC(C)C)NC(=O)[C@H](CCC(N)=O)NC(=O)[C@H](CO)NC(=O)[C@H](C)NC(=O)CC[C@H](NC(=O)CCCCCCCCCCCCCCCCCCC(=O)O)C(=O)O)[C@@H](C)O)[C@@H](C)O)C(=O)N[C@@H](CC(C)C)C(=O)N1CCC[C@H]1C(=O)N1CCC[C@H]1C(=O)N[C@H](C(=O)N[C@@H](CC(N)=O)C(=O)N[C@H](C(=O)NCC(=O)N[C@@H](CO)C(=O)N[C@@H](CC(N)=O)C(=O)N[C@H](C(=O)N1C[C@H](O)C[C@H]1C(N)=O)[C@@H](C)O)C(C)C)[C@@H](C)O

The assay has as its target T1, human amylin receptor (AMY3) on …. Nature of the assay: cell-based or functional assay.
Take B1: the “EC50/nM, CRE-luciferase reporter in amylin receptor/CRE-luc CHO cells” value is 0.08 nM and the “Relative activity (the EC50 ratio of Cagrilintide to the compound)” value stood at 113%.
Taken in the same sequence, the figures for B2 were 0.05 nM and 180%.
The matching figures for B3: 0.28 nM and 32%.
The matching figures for B4: 0.07 nM and 129%.
In the case of B5, the “EC50/nM, CRE-luciferase reporter in amylin receptor/CRE-luc CHO cells” value worked out at 0.1 nM and the “Relative activity (the EC50 ratio of Cagrilintide to the compound)” value was determined as 130%.
